Test results reported in article PMC3145977, “Thermostabilisation of an Agonist-Bound Conformation of the Human Adenosine A2A Receptor” (Journal of Molecular Biology, 2011).

B1: GL19: A2AR mutant L48A-V282A (protein, UniProt P29274 1-412, looked up, variant L48A V282A)
Adenosine receptor A2a: MPIMGSSVYITVELAIAVLAILGNVLVCWAVWLNSNLQNVTNYFVVSAAAADIAVGVLAIPFAITISTGFCAACHGCLFIACFVLVLTQSSIFSLLAIAIDRYIAIRIPLRYNGLVTGTRAKGIIAICWVLSFAIGLTPMLGWNNCGQPKEGKNHSQGCGEGQVACLFEDVVPMNYMVYFNFFACVLVPLLLMLGVYLRIFLAARRQLKQMESQPLPGERARSTLQKEVHAAKSLAIIVGLFALCWLPLHIINCFTFFCPDCSHAPLWLMYLAIVLSHTNSAVNPFIYAYRIREFRQTFRKIIRSHVLRQQEPFKAAGTSARVLAAHGSDGEQVSLRLNGHPPGVWANGSAPHPERRPNGYALGLVSGGSAQESQGNTGLPDVELLSHELKGVCPEPPGLDDPLAQDGAGVS
B2: GL9: A2AR mutant L48A-F83A (protein, UniProt P29274 1-412, looked up, variant L48A F83A)
Adenosine receptor A2a: MPIMGSSVYITVELAIAVLAILGNVLVCWAVWLNSNLQNVTNYFVVSAAAADIAVGVLAIPFAITISTGFCAACHGCLFIACAVLVLTQSSIFSLLAIAIDRYIAIRIPLRYNGLVTGTRAKGIIAICWVLSFAIGLTPMLGWNNCGQPKEGKNHSQGCGEGQVACLFEDVVPMNYMVYFNFFACVLVPLLLMLGVYLRIFLAARRQLKQMESQPLPGERARSTLQKEVHAAKSLAIIVGLFALCWLPLHIINCFTFFCPDCSHAPLWLMYLAIVLSHTNSVVNPFIYAYRIREFRQTFRKIIRSHVLRQQEPFKAAGTSARVLAAHGSDGEQVSLRLNGHPPGVWANGSAPHPERRPNGYALGLVSGGSAQESQGNTGLPDVELLSHELKGVCPEPPGLDDPLAQDGAGVS
B3: GL20: A2AR mutant L48A-Q89A-V12A (protein, UniProt P29274 1-412, looked up, variant L48A Q89A V12A)
Adenosine receptor A2a: MPIMGSSVYITAELAIAVLAILGNVLVCWAVWLNSNLQNVTNYFVVSAAAADIAVGVLAIPFAITISTGFCAACHGCLFIACFVLVLTASSIFSLLAIAIDRYIAIRIPLRYNGLVTGTRAKGIIAICWVLSFAIGLTPMLGWNNCGQPKEGKNHSQGCGEGQVACLFEDVVPMNYMVYFNFFACVLVPLLLMLGVYLRIFLAARRQLKQMESQPLPGERARSTLQKEVHAAKSLAIIVGLFALCWLPLHIINCFTFFCPDCSHAPLWLMYLAIVLSHTNSVVNPFIYAYRIREFRQTFRKIIRSHVLRQQEPFKAAGTSARVLAAHGSDGEQVSLRLNGHPPGVWANGSAPHPERRPNGYALGLVSGGSAQESQGNTGLPDVELLSHELKGVCPEPPGLDDPLAQDGAGVS
B4: GL17: A2AR mutant L48A-F242A (protein, UniProt P29274 1-412, looked up, variant L48A F242A)
Adenosine receptor A2a: MPIMGSSVYITVELAIAVLAILGNVLVCWAVWLNSNLQNVTNYFVVSAAAADIAVGVLAIPFAITISTGFCAACHGCLFIACFVLVLTQSSIFSLLAIAIDRYIAIRIPLRYNGLVTGTRAKGIIAICWVLSFAIGLTPMLGWNNCGQPKEGKNHSQGCGEGQVACLFEDVVPMNYMVYFNFFACVLVPLLLMLGVYLRIFLAARRQLKQMESQPLPGERARSTLQKEVHAAKSLAIIVGLAALCWLPLHIINCFTFFCPDCSHAPLWLMYLAIVLSHTNSVVNPFIYAYRIREFRQTFRKIIRSHVLRQQEPFKAAGTSARVLAAHGSDGEQVSLRLNGHPPGVWANGSAPHPERRPNGYALGLVSGGSAQESQGNTGLPDVELLSHELKGVCPEPPGLDDPLAQDGAGVS
B5: GL7: A2AR mutant L48A-T65A (protein, UniProt P29274 1-412, looked up, variant L48A T65A)
Adenosine receptor A2a: MPIMGSSVYITVELAIAVLAILGNVLVCWAVWLNSNLQNVTNYFVVSAAAADIAVGVLAIPFAIAISTGFCAACHGCLFIACFVLVLTQSSIFSLLAIAIDRYIAIRIPLRYNGLVTGTRAKGIIAICWVLSFAIGLTPMLGWNNCGQPKEGKNHSQGCGEGQVACLFEDVVPMNYMVYFNFFACVLVPLLLMLGVYLRIFLAARRQLKQMESQPLPGERARSTLQKEVHAAKSLAIIVGLFALCWLPLHIINCFTFFCPDCSHAPLWLMYLAIVLSHTNSVVNPFIYAYRIREFRQTFRKIIRSHVLRQQEPFKAAGTSARVLAAHGSDGEQVSLRLNGHPPGVWANGSAPHPERRPNGYALGLVSGGSAQESQGNTGLPDVELLSHELKGVCPEPPGLDDPLAQDGAGVS
B6: GL26: A2AR mutant L48A-Q89A-T65A-A54L (protein, UniProt P29274 1-412, looked up, variant L48A Q89A T65A A54L)
Adenosine receptor A2a: MPIMGSSVYITVELAIAVLAILGNVLVCWAVWLNSNLQNVTNYFVVSAAAADILVGVLAIPFAIAISTGFCAACHGCLFIACFVLVLTASSIFSLLAIAIDRYIAIRIPLRYNGLVTGTRAKGIIAICWVLSFAIGLTPMLGWNNCGQPKEGKNHSQGCGEGQVACLFEDVVPMNYMVYFNFFACVLVPLLLMLGVYLRIFLAARRQLKQMESQPLPGERARSTLQKEVHAAKSLAIIVGLFALCWLPLHIINCFTFFCPDCSHAPLWLMYLAIVLSHTNSVVNPFIYAYRIREFRQTFRKIIRSHVLRQQEPFKAAGTSARVLAAHGSDGEQVSLRLNGHPPGVWANGSAPHPERRPNGYALGLVSGGSAQESQGNTGLPDVELLSHELKGVCPEPPGLDDPLAQDGAGVS

Each molecule was assayed on [^3H]NECA-bound A2AR (assay: Thermostability assay of detergent-solubilised receptor with [3H]NECA bound (ligand plus format)). Conditions: not given.
Assay type: physicochemical, human
Protocol: […]. After solubilisation in DDM, A2AR was bound to Ni^2+-NTA resin, washed to reduce the DDM concentration and then eluted (see Methods). […]. An aliquot of E. coli cells (14 mL) was thawed on ice and resupended in 500 μL of buffer A [50 mM Tris–HCl (pH 7.4), 0.4 M NaCl, 250 μg/mL lysozyme (Sigma) and 1 mg/mL DNase I (Sigma), supplemented with complete ethylenediaminetetraacetic acid (EDTA)-free Protease inhibitor cocktail (Roche)] and incubated for 1 h at 4 °C. Samples were then sonicated for 1 min at 4 °C using a cup-horn sonicator. The receptors were solubilised by adding 1% DDM and incubated for 1 h at 4 °C. Insoluble material was removed by centrifugation (5 min, 13,000g, 4 °C). The solubilised receptors were partially purified with Ni-NTA agarose (Qiagen). Agarose beads (300 μL) pre-equilibrated in buffer A were added to 700 μL of solubilised receptor. […].
The sample was incubated for 45 min at 4 °C, then 30 min at the specified temperature and then 30 min at 4 °C. Receptor-bound and free radioligands were separated as previously described on mini gel-filtration columns.[26] Receptor-bound ligands were transferred to a 96-well plate (PerkinElmer) and mixed with 200 μL of Optiphase supermix (PerkinElmer). The bound ^3H-labeled ligand was determined using a 1450 Microbeta Trilux counter (1 min per sample).
For all the thermostabilisation studies carried out in our laboratory, the apparent Tm is the temperature for which 50% of the solubilised receptor remains folded after 30 min of incubation. The rate constant of the protein denaturation is a function of the temperature, and consequently, thermal denaturation of a protein can be compared to a chemical reaction for which the rate of the reaction is dependant on the temperature. Arrhenius established that any chemical reaction is temperature dependant. […]. The reference measurement representing the total binding activity of the sample A0 was considered to be measured at 4 °C. From the graphical representation t = Log10(t1/2) (Fig. 2c), we could extract a half-life for each construct at any temperature to define the improvement in stability of the various mutants compared to WT A2AR.

| Molecule | Apparent Tm in DDM, Single measurement [°C] | Apparent Tm in DM, Single measurement [°C] |
| --- | --- | --- |
| B1 | 40 | – |
| B2 | 43.5 | – |
| B3 | 46 | – |
| B4 | 39.5 | – |
| B5 | 45 | – |
| B6 | – | 46 |

Same assay, conditions: DM

| Molecule | Increase in stability versus WT receptor in DM [°C] |
| --- | --- |
| B6 | 21.5 |
